Measured values as given in PMC8104893 (Science Advances, 2021).

Target: T1, GST-XBAT31 (Arabidopsis, UniProt Q94B55 1-456)
T1 sequence (looked up): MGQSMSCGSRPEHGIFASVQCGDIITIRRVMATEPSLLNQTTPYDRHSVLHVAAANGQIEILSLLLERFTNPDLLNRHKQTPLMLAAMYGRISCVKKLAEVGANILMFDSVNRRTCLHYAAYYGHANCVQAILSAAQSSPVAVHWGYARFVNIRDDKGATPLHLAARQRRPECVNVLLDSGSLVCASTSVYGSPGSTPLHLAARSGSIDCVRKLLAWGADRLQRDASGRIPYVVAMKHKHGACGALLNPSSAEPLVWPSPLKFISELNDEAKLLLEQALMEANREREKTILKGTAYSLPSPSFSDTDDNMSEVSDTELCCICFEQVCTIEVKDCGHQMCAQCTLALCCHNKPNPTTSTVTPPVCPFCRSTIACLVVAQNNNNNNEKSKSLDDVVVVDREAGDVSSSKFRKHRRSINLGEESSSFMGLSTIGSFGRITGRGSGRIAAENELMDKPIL
Assay: pull-down

B1: MBP-BBX18 (natural protein, Arabidopsis, UniProt Q9SJU5 1-172, looked up)
chain: MRILCDACESAAAIVFCAADEAALCCSCDEKVHKCNKLASRHLRVGLADPSNAPSCDICENAPAFFYCEIDGSSLCLQCDMVVHVGGKRTHRRFLLLRQRIEFPGDKPNHADQLGLRCQKASSGRGQESNGNGDHDHNMIDLNSNPQRVHEPGSHNQEEGIDVNNANNHEHE
**Q.** Does B1 bind?
**A.** binds
